Assay results published in publication PMC4221783.

Tests used:
[1] = biological target: Vangl2 lacking the Prickle-binding domain (UniProt Q91ZD4); experiment: co-IP
[2] = biological target: Vangl2 lacking the PDZ-binding motif at the C-terminal end; experiment: co-IP
Chain of Vangl2 lacking the PDZ-binding motif at the C-terminal end (P84889 whole entry): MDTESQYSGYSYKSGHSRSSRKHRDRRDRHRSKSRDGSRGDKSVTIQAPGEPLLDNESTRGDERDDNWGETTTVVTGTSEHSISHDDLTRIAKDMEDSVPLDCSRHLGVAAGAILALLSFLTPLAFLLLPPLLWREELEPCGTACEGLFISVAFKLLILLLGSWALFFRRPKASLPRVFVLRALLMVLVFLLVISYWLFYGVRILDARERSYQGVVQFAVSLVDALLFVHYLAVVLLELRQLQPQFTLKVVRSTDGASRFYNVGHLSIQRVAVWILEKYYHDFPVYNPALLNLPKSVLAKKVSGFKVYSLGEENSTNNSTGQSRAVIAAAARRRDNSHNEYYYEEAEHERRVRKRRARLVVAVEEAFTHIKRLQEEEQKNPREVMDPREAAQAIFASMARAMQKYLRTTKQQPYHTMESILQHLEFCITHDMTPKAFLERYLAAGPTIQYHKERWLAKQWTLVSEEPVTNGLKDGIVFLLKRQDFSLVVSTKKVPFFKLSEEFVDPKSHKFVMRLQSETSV

Chain of Vangl2 lacking the Prickle-binding domain (Q91ZD4 whole entry, the tested form may be a part): as the sequence (P84889 whole entry) above

- association in co-IP, percent of WT [1]: 28.4%
- association in co-IP, percent of WT [2]: 87.1%
Substance: E-cadherin (from UniProt P09803 157-884) (natural protein)
